{"source": "the supplement of paper PMC9112550", "about": "“Optimization of the antimicrobial peptide Bac7 by deep mutational scanning” (BMC Biology, 2022);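 note: peptides expressed intracellularly from a pBAD plasmid library in pooled LB shake-flask culture, induced with 0.3% L-arabinose, DNA abundance read by NGS, three biological replicates, DESeq2 with apeglm shrinkage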", "data": [{"test_system": "Escherichia coli TOP10", "assay": "shrunken log2 fold change of peptide-encoding DNA abundance (4.5 h post-induction vs induction); higher = less antimicrobial activity (less host growth inhibition)", "settings": "time post-induction: 4.5 h; library: site-saturation at positions 5, 18, 19, 20", "values": [{"sequence": "RRIRIRPPRLPRPRPRPHPYPRP", "shrunken log2 fold change": -0.0313}, {"sequence": "RRIRQRPPRLPRPRPRPAVAPRP", "shrunken log2 fold change": 0.0726}, {"sequence": "RRIRKRPPRLPRPRPRPVLVPRP", "shrunken log2 fold change": -0.0465}, {"sequence": "RRIRCRPPRLPRPRPRPIECPRP", "shrunken log2 fold change": -0.00475}, {"sequence": "RRIRLRPPRLPRPRPRPMENPRP", "shrunken log2 fold change": -0.105}, {"sequence": "RRIRYRPPRLPRPRPRPCGEPRP", "shrunken log2 fold change": -0.0504}, {"sequence": "RRIRFRPPRLPRPRPRPFYKPRP", "shrunken log2 fold change": -0.311}, {"sequence": "RRIRYRPPRLPRPRPRPTDSPRP", "shrunken log2 fold change": -0.678}, {"sequence": "RRIRDRPPRLPRPRPRPADSPRP", "shrunken log2 fold change": 0.157}, {"sequence": "RRIRVRPPRLPRPRPRPFNWPRP", "shrunken log2 fold change": -0.498}, {"sequence": "RRIRPRPPRLPRPRPRPTCIPRP", "shrunken log2 fold change": -0.146}, {"sequence": "RRIRGRPPRLPRPRPRPFTTPRP", "shrunken log2 fold change": 0.0423}, {"sequence": "RRIRVRPPRLPRPRPRPCGFPRP", "shrunken log2 fold change": 0.624}, {"sequence": "RRIRMRPPRLPRPRPRPTAVPRP", "shrunken log2 fold change": 1.64}, {"sequence": "RRIRSRPPRLPRPRPRPQEGPRP", "shrunken log2 fold change": -0.0317}, {"sequence": "RRIRPRPPRLPRPRPRPWQIPRP", "shrunken log2 fold change": 0.452}, {"sequence": "RRIRPRPPRLPRPRPRPRYMPRP", "shrunken log2 fold change": -0.213}, {"sequence": "RRIRLRPPRLPRPRPRPMHIPRP", "shrunken log2 fold change": 0.0952}, {"sequence": "RRIRRRPPRLPRPRPRPERFPRP", "shrunken log2 fold change": 0.293}, {"sequence": "RRIRNRPPRLPRPRPRPQRNPRP", "shrunken log2 fold change": -0.109}, {"sequence": "RRIRPRPPRLPRPRPRPVIHPRP", "shrunken log2 fold change": -0.435}, {"sequence": "RRIRPRPPRLPRPRPRPWQHPRP", "shrunken log2 fold change": -0.105}, {"sequence": "RRIRIRPPRLPRPRPRPWDDPRP", "shrunken log2 fold change": -0.391}, {"sequence": "RRIRPRPPRLPRPRPRPETLPRP", "shrunken log2 fold change": -0.0144}, {"sequence": "RRIRLRPPRLPRPRPRPVYPPRP", "shrunken log2 fold change": -0.132}, {"sequence": "RRIRVRPPRLPRPRPRPVQSPRP", "shrunken log2 fold change": -0.104}, {"sequence": "RRIRMRPPRLPRPRPRPFRLPRP", "shrunken log2 fold change": -0.1}, {"sequence": "RRIRSRPPRLPRPRPRPGNSPRP", "shrunken log2 fold change": 0.0554}, {"sequence": "RRIRTRPPRLPRPRPRPQLPPRP", "shrunken log2 fold change": 0.107}, {"sequence": "RRIRRRPPRLPRPRPRPGNEPRP", "shrunken log2 fold change": -0.301}, {"sequence": "RRIRHRPPRLPRPRPRPHSDPRP", "shrunken log2 fold change": 0.0468}, {"sequence": "RRIRCRPPRLPRPRPRPRFKPRP", "shrunken log2 fold change": -0.00257}, {"sequence": "RRIRVRPPRLPRPRPRPVPTPRP", "shrunken log2 fold change": 0.149}, {"sequence": "RRIRARPPRLPRPRPRPHDKPRP", "shrunken log2 fold change": -0.0542}, {"sequence": "RRIRSRPPRLPRPRPRPKEFPRP", "shrunken log2 fold change": -0.216}, {"sequence": "RRIRRRPPRLPRPRPRPQRVPRP", "shrunken log2 fold change": 0.155}, {"sequence": "RRIRGRPPRLPRPRPRPLSVPRP", "shrunken log2 fold change": 0.383}, {"sequence": "RRIRPRPPRLPRPRPRPFVQPRP", "shrunken log2 fold change": -0.0832}, {"sequence": "RRIRERPPRLPRPRPRPKLMPRP", "shrunken log2 fold change": 0.0215}, {"sequence": "RRIRHRPPRLPRPRPRPDADPRP", "shrunken log2 fold change": 0.0435}, {"sequence": "RRIRMRPPRLPRPRPRPPSHPRP", "shrunken log2 fold change": 0.622}, {"sequence": "RRIRWRPPRLPRPRPRPNICPRP", "shrunken log2 fold change": 0.0504}, {"sequence": "RRIRSRPPRLPRPRPRPVRCPRP", "shrunken log2 fold change": 0.221}, {"sequence": "RRIRVRPPRLPRPRPRPFMQPRP", "shrunken log2 fold change": -0.285}, {"sequence": "RRIRFRPPRLPRPRPRPEQPPRP", "shrunken log2 fold change": 0.0505}, {"sequence": "RRIRIRPPRLPRPRPRPNGQPRP", "shrunken log2 fold change": -0.0848}, {"sequence": "RRIRTRPPRLPRPRPRPKNNPRP", "shrunken log2 fold change": -0.483}, {"sequence": "RRIRARPPRLPRPRPRPRWNPRP", "shrunken log2 fold change": 0.00795}, {"sequence": "RRIRRRPPRLPRPRPRPKQCPRP", "shrunken log2 fold change": 0.0754}, {"sequence": "RRIRLRPPRLPRPRPRPCQWPRP", "shrunken log2 fold change": -0.0969}, {"sequence": "RRIRTRPPRLPRPRPRPVDNPRP", "shrunken log2 fold change": -0.0554}, {"sequence": "RRIRFRPPRLPRPRPRPKHVPRP", "shrunken log2 fold change": -0.0891}, {"sequence": "RRIRYRPPRLPRPRPRPAIEPRP", "shrunken log2 fold change": 0.0193}, {"sequence": "RRIRVRPPRLPRPRPRPFRVPRP", "shrunken log2 fold change": -0.266}, {"sequence": "RRIRFRPPRLPRPRPRPCLQPRP", "shrunken log2 fold change": 0.0975}, {"sequence": "RRIRHRPPRLPRPRPRPRKEPRP", "shrunken log2 fold change": -0.0122}, {"sequence": "RRIRERPPRLPRPRPRPNIVPRP", "shrunken log2 fold change": -0.232}, {"sequence": "RRIRNRPPRLPRPRPRPMSDPRP", "shrunken log2 fold change": -0.00992}, {"sequence": "RRIRFRPPRLPRPRPRPTPVPRP", "shrunken log2 fold change": 0.706}, {"sequence": "RRIRDRPPRLPRPRPRPPWNPRP", "shrunken log2 fold change": -0.0258}, {"sequence": "RRIRIRPPRLPRPRPRPQCNPRP", "shrunken log2 fold change": -0.0824}, {"sequence": "RRIRERPPRLPRPRPRPGTIPRP", "shrunken log2 fold change": -0.386}, {"sequence": "RRIRERPPRLPRPRPRPMMRPRP", "shrunken log2 fold change": 0.169}, {"sequence": "RRIRCRPPRLPRPRPRPDMCPRP", "shrunken log2 fold change": -0.13}, {"sequence": "RRIRHRPPRLPRPRPRPANGPRP", "shrunken log2 fold change": -0.0837}, {"sequence": "RRIRARPPRLPRPRPRPVCDPRP", "shrunken log2 fold change": 0.992}, {"sequence": "RRIRERPPRLPRPRPRPCTNPRP", "shrunken log2 fold change": -0.559}, {"sequence": "RRIRFRPPRLPRPRPRPANEPRP", "shrunken log2 fold change": 0.0451}, {"sequence": "RRIRSRPPRLPRPRPRPMYCPRP", "shrunken log2 fold change": 0.0069}, {"sequence": "RRIRDRPPRLPRPRPRPECRPRP", "shrunken log2 fold change": 1.03}, {"sequence": "RRIRSRPPRLPRPRPRPRTEPRP", "shrunken log2 fold change": 0.00553}, {"sequence": "RRIRFRPPRLPRPRPRPDASPRP", "shrunken log2 fold change": 0.146}, {"sequence": "RRIRERPPRLPRPRPRPLKTPRP", "shrunken log2 fold change": -0.457}, {"sequence": "RRIRLRPPRLPRPRPRPVRQPRP", "shrunken log2 fold change": 0.569}, {"sequence": "RRIRIRPPRLPRPRPRPVLGPRP", "shrunken log2 fold change": 0.0875}]}]}
